The target in this data set is PARP-1 (recombinant, unmodified) (UniProt P09874 1-1014). Nature of the data set: EMSA.
Chain of PARP-1 (recombinant, unmodified) (P09874 whole entry): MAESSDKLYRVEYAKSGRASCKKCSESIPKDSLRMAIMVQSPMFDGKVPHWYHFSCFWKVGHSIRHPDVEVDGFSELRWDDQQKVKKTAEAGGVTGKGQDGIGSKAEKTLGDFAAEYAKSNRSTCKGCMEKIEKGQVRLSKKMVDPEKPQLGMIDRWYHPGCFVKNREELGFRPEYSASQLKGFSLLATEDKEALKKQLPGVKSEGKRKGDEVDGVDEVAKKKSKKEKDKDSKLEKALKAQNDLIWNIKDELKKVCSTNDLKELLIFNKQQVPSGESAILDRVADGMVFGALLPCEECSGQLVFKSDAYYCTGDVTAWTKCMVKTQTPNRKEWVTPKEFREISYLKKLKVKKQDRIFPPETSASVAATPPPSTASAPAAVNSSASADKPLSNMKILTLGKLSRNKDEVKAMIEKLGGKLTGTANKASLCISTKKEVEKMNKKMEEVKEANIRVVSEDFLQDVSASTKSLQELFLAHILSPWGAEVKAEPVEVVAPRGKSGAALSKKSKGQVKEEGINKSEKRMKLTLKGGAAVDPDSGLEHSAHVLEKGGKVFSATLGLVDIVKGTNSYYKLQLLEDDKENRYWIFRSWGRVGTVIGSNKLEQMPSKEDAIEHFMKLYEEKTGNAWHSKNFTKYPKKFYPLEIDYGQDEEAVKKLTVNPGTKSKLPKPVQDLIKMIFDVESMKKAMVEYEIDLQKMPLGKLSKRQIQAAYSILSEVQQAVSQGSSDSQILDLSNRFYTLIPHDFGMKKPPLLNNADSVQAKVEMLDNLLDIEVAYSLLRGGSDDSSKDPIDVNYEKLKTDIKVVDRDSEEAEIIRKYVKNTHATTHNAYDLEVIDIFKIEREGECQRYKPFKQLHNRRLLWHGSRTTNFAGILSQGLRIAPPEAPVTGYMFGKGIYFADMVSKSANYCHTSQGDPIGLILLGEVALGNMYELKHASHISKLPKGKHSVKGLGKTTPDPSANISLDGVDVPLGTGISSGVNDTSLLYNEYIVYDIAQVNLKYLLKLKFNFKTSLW

B1: NS (MOR poly(C) sequence) (dsDNA)
DNA 1: CTTCTGCTCCCCCCCCCCCTACCC
DNA 2: GGGTAGGGGGGGGGGGAGCAGAAG
Consider B1, for which the binding result is given as “binds”.

The record behind these values is article PMC4514111.
